Assays:
[1] = tested on: DENV2 capsid protein C, mature WT (Dengue virus type 2 (cDNA clone GenBank U87411)); experiment: filter binding
[2] = biological target: mature dengue virus type 2 capsid (C) protein with substitutions L50S-L54S, recombinant (dengue virus type 2) (UniProt P29990); experiment: SEC-MALS
[3] = biological target: mature dengue virus type 2 capsid (C) protein, wild type, recombinant (dengue virus type 2) (UniProt P29990); experiment: SEC-MALS

## DENV 5'UTR RNA probe (viral 5' terminal region nt 1-160)
[1]
  Kd: 22 nM

## mature dengue virus type 2 capsid (C) protein with substitutions L50S-L54S, recombinant (from UniProt P29990 1-100) (natural protein)
[2]
  stoichiometry N: 2

## mature dengue virus type 2 capsid (C) protein, wild type, recombinant (from UniProt P29990) (natural protein)
[3]
  stoichiometry N: 2

— publication PMC2760139
